Results on 1 protein are retold here after doi:10.1101/2021.03.15.435402, “GTP and lipids control self-assembly and functional promiscuity of Dynamin2 molecular machinery” (bioRxiv, 2021).

Series [1] deals with the molecule itself. Kind of series: single-molecule fluorescence microscopy (oligomer size from mEGFP intensity); Dyn2-mEGFP (10-20 nM) premixed with 0.2 mM LUVs (Rh-DOPE) added to nanotubes, no GTP; mEGFP fluorescence colocalized with LUVs tethered to the nanotube.
Series [2] concerns the molecule itself. The series is described as follows: single-molecule fluorescence microscopy (oligomer size from mEGFP intensity); Dyn2-mEGFP 20 nM pulse-perfused on membrane nanotubes (40 mol% PE, 0.1 mol% Cy5-PE), protein washed off from the bulk, no nucleotide (apo); total fluorescence divided by the mean intensity of a single mEGFP.

B1: Dyn2 labeled with monomeric GFP (Dyn2-mEGFP) (natural protein, UniProt P50570 1-870, looked up)
chain: MGNRGMEELIPLVNKLQDAFSSIGQSCHLDLPQIAVVGGQSAGKSSVLENFVGRDFLPRGSGIVTRRPLILQLIFSKTEHAEFLHCKSKKFTDFDEVRQEIEAETDRVTGTNKGISPVPINLRVYSPHVLNLTLIDLPGITKVPVGDQPPDIEYQIKDMILQFISRESSLILAVTPANMDLANSDALKLAKEVDPQGLRTIGVITKLDLMDEGTDARDVLENKLLPLRRGYIGVVNRSQKDIEGKKDIRAALAAERKFFLSHPAYRHMADRMGTPHLQKTLNQQLTNHIRESLPALRSKLQSQLLSLEKEVEEYKNFRPDDPTRKTKALLQMVQQFGVDFEKRIEGSGDQVDTLELSGGARINRIFHERFPFELVKMEFDEKDLRREISYAIKNIHGVRTGLFTPDLAFEAIVKKQVVKLKEPCLKCVDLVIQELINTVRQCTSKLSSYPRLREETERIVTTYIREREGRTKDQILLLIDIEQSYINTNHEDFIGFANAQQRSTQLNKKRAIPNQGEILVIRRGWLTINNISLMKGGSKEYWFVLTAESLSWYKDEEEKEKKYMLPLDNLKIRDVEKGFMSNKHVFAIFNTEQRNVYKDLRQIELACDSQEDVDSWKASFLRAGVYPEKDQAENEDGAQENTFSMDPQLERQVETIRNLVDSYVAIINKSIRDLMPKTIMHLMINNTKAFIHHELLAYLYSSADQSSLMEESADQAQRRDDMLRMYHALKEALNIIGDISTSTVSTPVPPPVDDTWLQSASSHSPTPQRRPVSSIHPPGRPPAVRGPTPGPPLIPVPVGAAASFSAPPIPSRPGPQSVFANSDLFPAPPQIPSRPVRIPPGIPPGVPSRRPPAAPSRPTIIRPAEPSLLD
notes: Dynamin 2 (Dyn2) fused to monomeric EGFP; source: purified
As a reminder, the stoichiometry N is the number of molecules, sites or subunits per partner or assembly. Take B1: the “stoichiometry N” value was found to be 38 ± 16 molecules in series [1] and 12 ± 6 mEGFP units in series [2].
